assay: soluble on expression in E. coli; label from the status in PepcDB or PDB records

Row | Sequence | soluble on expression in E. coli
1 | GPGSRVRDKKDMDASELELRRVQGSLNKLTDKNFDAVVEEALSPDLVLNPLVLKGAVDIIFNKAMAEPVFSGIYAQLCQRIKVYEQDLVAEAAENPTSELGQLMAAVQAGDEDQKNVNGRVRNALVKRCQEFHDSFVKQPPPRNAEAEEQLRKRNMANIKFVGELYMRSLISHRVILAVCSTALVLGFIPSPKLVTTDADLEMMVSLMNVIGKRFDENAGMALNHVPKDAAAAAHPHDTIWRALNSSMNDPRFSRRIRFLIQNLLEWRNDGWKPKESPAQGSSGGSADDSNNTT | not soluble
2 | MSMEFDAVIIGGGVSGCATFYTLSEYSSLKRVAIVEKCSKLAQISSSAKANSQTIHDGSIETNYTPEKAKKVRLSAYKTRQYALNKGLQNEVIFETQKMAIGVGDEECEFMKKRYESFKEIFVGLEEFDKQKIKELEPNVILGANGIDRHENIIGHGYRKDWSTMNFAKLSENFVEEALKLKPNNQVFLNFKVKKIEKRNDTYAVISEDAEEVYAKFVLVNAGSYALPLAQSMGYGLDLGCLPVAGSFYFVPDLLRGKVYTVQNPKLPFAAVHGDPDAVIKGKTRIGPTALTMPKLERNKCWLKGISLELLKMDLNKDVFKIAFDLMSDKEIRNYVFKNMVFELPIIGKRKFLKDAQKIIPSLSLEDLEYAHGFGEVRPQVLDRTKRKLELGEKKICTHKGITFNMTPSPGATSCLQNALVDSQEIAAYLGESFELERFYKDLSPEELENLEHHHHHH | soluble
3 | MAHHHHHHMSIYIQLTHDLSGTVTAVTIGDWILGILKEKNIQEYEVFFKKFLHIYQKQDKDSECNNRSEIFSLLLSASDFVFETLVETKKNNKIKVIIDNKESVKSYNEFYKEVEEYFVILISILQLEFKSVEELNNATNNFIKAIKNYNEFPELRLKILQLLYNSFNVNFSFRFPTFIAILQFCSQNNIFHNMLPYIKYIDDWIKEWNISTREKRHIYLIISQELKKLKKYEESYEHLKKHIYYYDNEHKDILNHPNSINASIELIVDAININNNIYFHEIINLHAIQNLQFIPQHQPLFDLLLIFYKYTINEFLVFKNKHGSDFFNKYNIDIQTCESKIYLLSIISLFNDHKVQNIQFISKQLNISVVQIENILVAAIGSGVIDAKIDQINQTVHMKTTILRNFDDENWKQLNNQITKYINNVQKILELTKHANK | not soluble
4 | MKFVDEASILVVAGDGGNGCVSFRREKYIPKGGPDGGDGGDGGDVWMEADENLNTLIDYRFEKSFRAERGQNGASRDCTGKRGKDVTIKVPVGTRVIDQGTGETMGDMTKHGQRLLVAKGGWHGLGNTRFKSSVNRTPRQKTNGTPGDKRELLLELMLLADVGMLGMPNAGKSTFIRAVSAAKPKVADYPFTTLVPSLGVVRMDNEKSFVVADIPGLIEGAAEGAGLGIRFLKHLERCRVLLHLIDIDPIDGTDPVENARIIISELEKYSQDLATKPRWLVFNKIDLLDKVEAEEKAKAIAEALGWEDKYYLISAASGLGVKDLCWDVMTFIIENPVVQAEEAKQPEKVEFMWDDYHRQQLEEIAEEDDEDWDDDWDEDDEEGVEFIYKR | soluble
5 | GPGSMTVVRAALLGFGTVGQGIYKIVQQRREQLKQKLGGAELVIVKILVRDLRKRSRVLPDGYASDAKLFTNNIEDVFRADVQVIFEATVGEEPAFTYLQRAIVEHGCSVITANKVMFARYGATLQELAASCTPTSSFPATRVYVGFEATVAAGVPIIKTLQNMCHVQQVRKIEGIVNGTSNYILTELREYPEKSFEEVLKKSQELGYAEADPTNDISGHDAFMKLLVMVAIAFGHQPSRSTVPVTGIDTLTPEMLQDARAKGLRYRHVVSAAMEGAATSSCALKSSAAEGEEAQPRTPPLHERLTCSVKPMLLGPEHPLYHMDGTTSAVSVWTDYLGVVTISGPGAGMYCTASAMMEDYAVWMEAFRRP | not soluble
6 | MKLNKQNLTQLAPEVKLPAYTLADTRQGIAHIGVGGFHRAHQAYYTDALMNTGEGLDWSICGVGLRSEDRKARDDLAGQDYLFTLYELGDTDDTEVRVIGSISDMLLAEDSAQALIDKLASPEIRIVSLTITEGGYCIDDSNGEFMAHLPQIQHDLAHPSSPKTVFGFICAALTQRRAAGIPAFTVMSCDNLPHNGAVTRKALLAFAALHNAELHDWIKAHVSFPNAMVDRITPMTSTAHRLQLHDEHGIDDAWPVVCEPFVQWVLEDKFVNGRPAWEKVGVQFTDDVTPYEEMKIGLLNGSHLALTYLGFLKGYRFVHETMNDPLFVAYMRAYMDLDVTPNLAPVPGIDLTDYKQTLVDRFSNQAIADQLERVCSDGSSKFPKFTVPTINRLIADGRETERAALVVAAWALYLKGVDENGVSYTIPDPRAEFCQGLVSDDALISQRLLAVEEIFGTAIPNSPEFVAAFERCYGSLRDNGVTTTLKHLLKKPV | soluble
7 | GMIPFPESRLAAQMSFVVEIDKLKTILRQTLLTDSSRRENDAEHSWHIATMAFLLAEYADEAVQIGRVARMLLIHDIVEIDAGDTFIHDEAGNEDKEERERKAAARLFGLLPPDQAAEYSALWQEYEARETADARFADALDRLQPLLHNFETEGGTWKPHGVTRAKVDKLLPRIEAGSKRLGAYARALVDEAVRRGYLAP | soluble
8 | MAVRVCCHAPPGVSNHLFTFCAGNLTTGFSGGSVTSQKGGAAGLPTCSRRCPRGCLPGSDPLPRHPRRYAPPVTPPVTPPTTPAPRSRARMLELVFPKDTNYHGTAFGGWVLALMDKAASVAAVRHAGGNVVTARMDGVDFHVPIRVGDAVALDARVIRVGRSSMTIRVDVYRENMASGEQQLATGGLFTFVALGEDGKPRPVPPLPEGSTDSEQPDYEARPLEHHHHHH | not soluble
9 | MSRQTEIVRRMVSAFNTGRTDDVDEYIHPDYLNPATLEHGIHTGPKAFAQLVGWVRATFSEEARLEEVRIEERGPWVKAYLVLYGRHVGRLVGMPPTDRRFSGEQVHLMRIVDGKIRDHRDWPDFQGTLRQLGDPWPDDEGWRP | soluble
10 | DSDVEIATIALLDTVQPAHLAPDTKEETVKRWERYSAFAKKTYGLDFPVPYELLETAGEDALLAMMAEFLSTTDATEHGLSAGVLEHQRASFVDNRILDRMDMQRWANVKIPVMLFRAERMHDGAIELEPAYAEIEPDGGWSAIVEDLVIIQLSGDHLAVVDEPEIGKVGVALTNRIEQLQGK | not soluble
11 | MQFFDGYHYHGTTFEQSYRCYPASFIDKPQLESGDKIIMPPSALDRLASLHIDYPMLFELRNAGIERVTHCGVLEFIAEEGMIYMPYWMMQNLLLQEGDIVRVRNVTLPKGTYVKLQPHTTDFLDISNPKAILETALRNYSCLTSGDSIMVPYNNKKYFIDIVETKPANAISIIETDCEVDFAPPLDYKEPERPTAPSAAKGPAKAEEVVDEPEPKFNPFTGSGRRLDGRPLAYEPAPASSSKGKQPVVANGNGQSSVASSSEKATRAQGKLVFGANGNRAPKEAAPKVGAAKETKKEEQEKKDEPKFQAFSGKKYSLRG | soluble
12 | AGFQLNEFSSSGLGRAYSGEGAIADDAGNVSRAPALITMFDRPTFSAGAVYIDPDVNISGTSPSGRSLKADNIAPTAWVPNMHFVAPINDQFGWGASITSNYGLATEFNDTYAGGSVGGTTDLETMNLNLSGAYRLNNAWSFGLGFNAVYARAKIERFAGDLGQLVAGQIMQSPAGQTQQGQALAATANGIDSNTKTAHLNGNQWGFGWNAGILYELDKNNRYALTYRSEVKIDFKGNYSSDLNRAFNNYGLPIPTATGGATQSGYLTLNLPEMWEVSGYNRVDPQWAIHYSLAYTSWSQFQQLKATSTSGDTLFQKHEGFKDAYRIALGTTYYYDDNWTFRTGIAFDDSPVPAQNRSISIPDQDRFWLSAGTTYAFNKDASVDVGVSYMHGQSVKINEGPYQFESEGKAWLFGTNFNYAFHHHHHH | soluble
13 | MREKIDALTQNLNRTIVGKTEAIRLVLVALIGGGHALLEDVPGVGKTLLAKSLARSLDGTFQRLQCTPDLLPTDITGTNIWNPKSGEFSFMPGPVFANVVLADEINRATPRTQSALLEVMEEQQVTVDGVSRTVPHPFFVIATQNPVEYQGTFPLPEAQMDRFMLSLSLGYPGVDEELEMLQNLQHGIKVGDLQPCLTLAEVAELRDICSQVKVETVLQQYILELVRATRQDEEITLGVSPRGTVALHKATQALAFLLGRDYAIPDDVKFLAPHVLCHRLIPRGGRSARSIVDRLLRSLPIPLEHHHHHH | soluble
14 | MLGVRMSGSVLDEEAEKLMDYDYLLEKLYKKVPPKSGTSEYRIPEPQIIRIGSQTVIRNFREIAQALKRDPKLVARYLQKELATAASYEEESGQLILNVKVSRKVVNQFLQLFMKTYVRCPTCGSIDTKLLRQERAYMLKCEACGAEQPVKPI | soluble

— the DeepSol protein solubility set
